Measured values reported in the DeepSol protein solubility set.

Assay: soluble on expression in E. coli; label from the status in PepcDB or PDB records

Soluble on expression in E. coli, soluble:
MEKPASKSKRKPKETSDDVDADVLPEKGLHNSDGFLFYHASFRPLTSAQHRRAEEHGIDLKTKKVFTVEESIQVFENWRKFATEHNMKLAKAPEYISPKKTDRHIFKHQEEHHFWPKLCDGLPHRPACTIKMRAISMMTSSFMENLEWSRLAEEIKAKLHTYETNDDLTMQKAQKLLEKGYAASHVAEILNVSNGKMSSMASKLRTLEARNDPTMIHAFYESTVYFGLKLKKLRRAITTNDDYRIESVRRKVRLEEIGLQLHISEQKCKDLLKIVIETIRTKYTESLEEAGLDEDEAWSKALALVDSRPPIEESQLYKALEIICKHIEKAETTGSLLSHEQLPSIIKSHGITGFQSDRSEYAYLHFRLCGLLMHQLTTGFFEHLRREFPLQIKLHCLLWSYKRLDVWEKICVEEGKTRYETVLKSEIANPLASKMTLKFLKNEKVVEWISDPRPPKNRQKAATRRLETAIESFILYSYNKFGETFKFPAKFRRILHTSKTVRSVLEVVSDPENAEFLSIKEARKTVEDASGCKIAVKIKNKRIVPKLKDESDASEDGESENSDSEDLIKHSHSIERSAFEERRDEIEKVLQRADPSKIRAKFRKKDEIPEEILLSKELRQQKRAMTRAAEKLERLEAKICSAEFIDDGSGCSYSQVDEDLLEREKKRKRKKSEASEVVIGTDQLDTAEDLQGSKKKKHAEVLEGKDHEDTGCSDSQQVMDPEVCEDLVEKEKKKKRKRKISEASEVVIGMNQMERAEDLQRSKKKKHAEILEGNDHEDSENLKKRSKKKKKRKDHDAEFDAELDLDSENLDEEPKKRKKHC
MSLSNKIFTHSLPMRYADFPTLVDALDYAALSSAGMNFYDRRCQLEDQLEYQTLKARAEAGAKRLLSLNLKKGDRVALIAETSSEFVEAFFACQYAGLVAVPLAIPMGVGQRDSWSAKLQGLLASCQPAAIITGDEWLPLVNAATHDNPELHVLSHAWFKALPEADVALQRPVPNDIAYLQYTSGSTRFPRGVIITHREVMANLRAISHDGIKLRPGDRCVSWLPFYHDMGLVGFLLTPVATQLSVDYLRTQDFAMRPLQWLKLISKNRGTVSVAPPFGYELCQRRVNEKDLAELDLSCWRVAGIGAEPISAEQLHQFAECFRQVNFDNKTFMPCYGLAENALAVSFSDEASGVVVNEVDRDILEYQGKAVAPGAETRAVSTFVNCGKALPEHGIEIRNEAGMPVAERVVGHICISGPSLMSGYFGDQVSQDEIAATGWLDTGDLGYLLDGYLYVTGRIKDLIIIRGRNIWPQDIEYIAEQEPEIHSGDAIAFVTAQEKIILQIQCRISDEERRGQLIHALAARIQSEFGVTAAIDLLPPHSIPRTSSGKPARAEAKKRYQKAYAASLNVQESLAEGHHHHHH
MKKMAFAAIALGLVACAPAQQQRLVYPPTVEVERIQLTSFSLPAPGRAAVAGVRLELNVDNPNPLPVRLVQLAGVLVLDGQEAGTVTVPDIRLPGQGRARQVAQLTLPVTFKTATTFLNIARGQEVSYRLDGTLTADLGPLGQPTFGPFTLTQGVWKQAPLSVF
MSLGNGVGTCDLPPQFAYFFQFSHLSATRNLLCLDLDETLVCSKQRTPQTRETEDFYVVVEQRGKRYEFSVIKRPGLDVFLVSMAELYDLAIFTYAIKEYGDKIVNIIDPNRLIKYRMYRQHCVKYLVDKRHVIVKDLSRVGKPHSSILLIDNSASTGIWQRNNFLLVPSFYGDERDKVLYELKELLEGISKCKDFYTEIQSLRSVEGHHHHHH
MAHHHHHHMGNKISTEDHIFRLKLKTKELEKLSQRSELEEKKLIGDVKKAIQAGKIELARLYAEKCIRKKNEKVNYLNLSNKLDVLVSRLEGAHRCASLVKDVGVMIPLIQKINAETNAIKIGNDVTKLENIFDEISISSELINDTVQTSSAISAPTEEVDELISKIADEHALKLDGQIGSVHPINKHLEEISNMSERIKNLK
AHHHHHHGSDCGKDYCVKDLSLAEEGWKKIDWVSRFMPVLQYIKREFEEKKPFKGVRIAATLHLEMKTAFLLLTLKAGGAEVSAAASNPLSTQDDVVAALAKAGVKVYAIRGESREQYYEFMHKALDIRPNIIIDDGADMISLVHKERQEMLDEIWGGSEETTTGVIRLRAMEKAGILKFPVIAVNDSYMKYLFDNRYGTGQSTWDGIMRATNLLIAGKNVVVVGYGWCGRGIAMRARGLGATVIVVEVDPIKALEARMDGFLVMDMKEAAKIGDIFVTATGNIKCIRREHFELMKDGAIMANAGHFDVEIWKPDLEKLAVEINNPRPNVTEYKLKDGRRLYLLADGRLVNLVAADGHPAEIMDMSFALQAKAAEYIKDNHERLEPKVYILPREIDEMVARIKLESMGIKIEELTEEQKKYLESWEHGT
MKPLSSQLNMKINDFYLPLLPVIGTGRLYITSKGHACHAYFREVSGHGIRFTLTYSGYEGRFWISEEQFIQWCQELFPYSESRLIPEDTIKLMILWVMQTALPEGDVSVDDVQFTMLNKDIYPVIENNNGENRLNVIILETTVQSLQYLINDNWQLVPHSNALFFDGYIVPGWTDYPVTELRVGDSLRLYHVDDSQERRCWIVINTPLATVNLSDNNLSVTDVLAADLLSALSNETVMNRIYCAIGTVHIDIHMLRNVKKDDIINSDGYHLFGGCQLIRNNTTIAYGSIVKINEDFYFTVSIVCD
MSLSEGPKKAGVLGSPIAHSRSPQLHLAAYRALGLHDWTYERIECGAAELPVVVGGFGPEWVGVSVTMPGKFAALRFADERTARADLVGSANTLVRTPHGWRADNTDIDGVAGALGAAAGHALVLGSGGTAPAAVVGLAELGVTDITVVARNSDKAARLVDLGTRVGVATRFCAFDSGGLADAVAAAEVLVSTIPAEVAAGYAGTLAAIPVLLDAIYDPWPTPLAAAVGSAGGRVISGLQMLLHQAFAQVEQFTGLPAPREAMTCALAALDEGHHHHHH
MSKSTAEIRQAFLDFFHSKGHQVVASSSLVPHNDPTLLFTNAGMNQFKDVFLGLDKRNYSRATTSQRCVRAGGKHNDLENVGYTARHHTFFEMLGNFSFGDYFKHDAIQFAWELLTSEKWFALPKERLWVTVYESDDEAYEIWEKEVGIPRERIIRIGDNKGAPYASDNFWQMGDTGPCGPCTEIFYDHGDHIWGGPPGSPEEDGDRYIEIWNIVFMQFNRQADGTMEPLPKPSVDTGMGLERIAAVLQHVNSNYDIDLFRTLIQAVAKVTGATDLSNKSLRVIADHIRSCAFLIADGVMPSNENRGYVLRRIIRRAVRHGNMLGAKETFFYKLVGPLIDVMGSAGEDLKRQQAQVEQVLKTEEEQFARTLERGLALLDEELAKLSGDTLDGETAFRLYDTYGFPVDLTADVCRERNIKVDEAGFEAAMEEQRRRAREASGFGADYNAMIRVDSASEFKGYDHLELNGKVTALFVDGKAVDAINAGQEAVVVLDQTPFYAESGGQVGDKGELKGANFSFAVEDTQKYGQAIGHIGKLAAGSLKVGDAVQADVDEARRARIRLNHSATHLMHAALRQVLGTHVSQKGSLVNDKVLRFDFSHNEAMKPEEIRAVEDLVNTQIRRNLPIETNIMDLEAAKAKGAMALFGEKYDERVRVLSMGDFSTELCGGTHASRTGDIGLFRIISESGTAAGVRRIEAVTGEGAIATVHADSDRLSEVAHLLKGDSNNLADKVRSVLERTRQLEKELQQLKEQAAAQESANLSSKAIDVNGVKLLVSELSGVEPKMLRTMVDDLKNQLGSTIIVLATVVEGKVSLIAGVSKDVTDRVKAGELIGMVAQQVGGKGGGRPDMAQAGGTDAAALPAALASVKGWVSAKLQ

Soluble on expression in E. coli, not soluble:
MGSDKIHHHHHHMVRLWLMYKNKEEQANMQVEKDVIYDSAYNLAADLYVPDEANGGAIVYAHGGGWFRGDKENESDLGKYFADAGYLFTIPNFRLAPKYLYPTAQNDFDHFINWLLASPYDFDRERLGLLGASSGGTMVLQNSLASGYPLVAWSPVVDFANWVQKNQMVKASVDGKKELGLTEIHEIHDSFYKYFVQTYLGGLDPRLLTAVNPTNHLTDQLGPALLFNSADELMPLPSALHFLQQAAMFGRDIGLHVVPGTGHARDYTSFALPETKRFFDHHLFTTVEDKTLNKATD
MSLVTIYDVAAKAGVSIKTVSRVMNNEPNVRPVMRERVLAAAGELGYSPNLSARSLAGSRSFVIAVFVDAALTIDHWQSERGADYLSRIQLGATLVCRDAGYHLLIELIDHEGPQVRQEVAALLAALKPDGVILTPPSSDNAVVLELLDRAGTPYVRVGPERAEGLGPRVHMDDVAAAREMTDHLIGLGHKRIGFIVGEPRYGASQARRDGYLEAMRAKGLSVPEFWVRQGDFTFQSGLEQAKALLALPERPTAIFASNDDMALGAIAAIADAGLMTPGDVSVAGFDDSPSSRFSRPQLTTVRQPVAEMSSVAAKLLIERSRGGASTERPVDELLPFTLIHRASTEGHHHHHH
MRVYVGVDTGGTFTDFVYWDGKEWRVLKIPSTPSNPAEAVLKGLEKLRRGKALDVVHGSTVATNALLERKGAKTALITNKGFEDVIEIGRQNRERLYDLYYRKPKPLVPRELRFGLNCRINAKGEVLKPINREELKEILKALKEKGVESVAVCMLHSYANPEHEKEVEEELKKNLSVFVSLSSEILPEFREYERCSTTVINAYVSPKMSKYLYYLKDRLREGDLFRVMQSNGGLISPETASKEAVRTILSGPAGGVIGALHLGKLAGFEKLITFDMGGTSTDVSLIYGTPNITTESKIDGLPVKVPMIDINTVGAGGGSIAYVDEGGALRVGPQSAGAQPGPICYGRGGKEITVTDANLFLGRLVPEHFLGGEMKLYPELLEEPFKEMAKKIGLAPTELAEGIIKVANSSMERAIRKVSVERGYNPEEFALFSFGGAGGLHAVLLAKSLNIPKVIIPRNPGLLSAVGMLFADIVKDKVTTVMLKEEEAKPETLEKLFLLMEEKVLSEMEGEGFPPEKVFVERFLDVRYKGQSYEITIPFGENFKETFEKEHERLYGYAHRGRKIEIVNLRIKATGIKEKPPLKEFKERGDKYPKDAILGEREVVFEGRLETFKVLDREKLVYGNVIDFPAIVVEYSSTTLIPPYATAEVDRYGNLIITLL
MGSDKIHHHHHHMKPIDQITSWMQEALRPYFGLEPLSAEWDILTVRDGYFICFDGDTIRKRITATELNYQEEDVIIQTSEREVVLPRTARGKEKKLTYTSVSSVMADGIVFSAGIRTLNSGRYGYINVSNYRNSIRLPLPECRDLASKGEIVEWLQSYRERVPADYAHKLERLMHMKNRQHKTIPGDVFRVEIDLHTDGYVLVIGNLRQMQKDELFAEHSIWNDVMTMPLFVRPYLFRTTVRNPSLSEIVASPLSDKCWIVMDNAFLRGNYEYVGSKILAEEDILFPVGYGSSISAQKSDYRLSWGPNSISKASQDTGLKAGRSYMNNGAYSSVSADCFVDRGFPDWDKTLLNPEHLEAWEQVLAEFGFPPDTTYDAFAQRTDGMTRAAYLTYVAENKAYQRKGRAKKKGS
MSGKISEEAMQEQAERAEYVKNIGIEYRFGCYEEKRPESCQLLGEYMEALQQNFQAAVAIFKKNCDENSYPKSCFKYGMYMLAGKVGDDASLSKMIRPMKIACDANIPQGCRYLSLVHWNGEKDRKADSEKAERYMRRACELEDGEACWLLSTWYMGNKEKFKTNAAGEAKELDRAELGSLSRDMDKSLQFAIRACEMDIPQSCANVSRMFKLGDGVPKDLDQAKKYADRAKEIMETLRSNDTNAGFTG
MSLFLSNVILHQLRKNDNDELVVNYRAESLRNDTSTENLVAELHRVFNAKAGKGFGCFKSDSEFQLWLQEMRRGTLPFYEFSQQSAQRLKNELAKYPFADEGILVMAEYQSLATDYLFIGLLPLNQSLKVTEGLDISATDYLDINKMDIVARIDLSSYETDKESKRYLSYIKGRVGRKVADFFLDFLQADIGLDTKQQNQVLMQAVEDFCADAKFEKEEVISYKKQVYEYCNDQIKAGDEVRVQELSGELPPSNEGVNFFDFTREQGYQLEESFPADRSTVRKLTKYVGAGGGLNLSFDSLLLGERVFYDPETDTLTIKGTPPNLEHHHHHH
PVHAVGIGPGNLDFLTPRGEEAIREADVVVGFETVVEFVADRTDADLLTCGYRDELDTLDAFAERVAGGERGTAVAMGDPNHSGYQFVGKVQRAVDRPVRIVPGI
